From patent publication US20090298167A1 (Pfizer, published 2009)
Positions count from the first letter of the chain named.

T1: human gamma common chain expressed on CHO cells (human, UniProt P31785 23-369)
T1 construct: whole, on cells; Control protein; also called human IL-2R-γ common subunit; human gamma (γ) common chain
T1 sequence (looked up): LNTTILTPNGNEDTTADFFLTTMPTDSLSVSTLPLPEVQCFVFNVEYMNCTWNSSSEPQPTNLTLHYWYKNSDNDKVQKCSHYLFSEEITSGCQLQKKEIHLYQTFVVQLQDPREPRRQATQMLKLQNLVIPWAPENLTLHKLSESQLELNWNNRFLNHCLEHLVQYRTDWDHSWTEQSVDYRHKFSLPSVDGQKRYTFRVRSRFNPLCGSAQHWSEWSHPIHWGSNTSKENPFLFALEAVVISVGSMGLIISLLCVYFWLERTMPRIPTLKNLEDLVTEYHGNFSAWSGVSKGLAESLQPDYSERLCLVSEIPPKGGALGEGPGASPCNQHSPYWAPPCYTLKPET

B1: AbA (antibody, human IgG1, V domains shown)
VH: QVQLQESGPGLVKPSETLSLTCAVSGYSISSGYYWGWIRQPPGKGLEWIGSISHTGNTYYNPPLKSRVTISVDTSKNQFSLKLSSVTAADTAVYYCARGGGISRPEYWGQGTLVTVSS
VL: SSELTQDPAVSVALGQTVRITCQGDSLRTYYASWYQQKPGQAPVLVIYGKHKRPSGIPDRFSGSSSGNTASLTITGAQAEDEADYYCVARSVVGNPHVLFGGGTQLTVL
notes: Full-length human IgG1 / human lambda, transient, conditioned medium; Framework limits derived; also called VHP/VL2
B2: AbH (antibody, human IgG1, V domains shown)
VH: B1 VH
VL: B1 VL with S91A, V93R
notes: Full-length human IgG1 / human lambda, transient, conditioned medium; Framework limits derived; also called VHP/VL19
B3: AbF (antibody, human IgG1, V domains shown)
VH: B1 VH
VL: B1 VL with V88S, A89T, V92R, V93K
notes: Full-length human IgG1 / human lambda, transient, conditioned medium; Framework limits derived; also called VHP/VL17
B4: AbI (antibody, human IgG1, V domains shown)
VH: B1 VH
VL: B1 VL with V88I, V92N, V93K
notes: Full-length human IgG1 / human lambda, transient, conditioned medium; Framework limits derived; also called VHP/VL24
B5: AbJ (antibody, human IgG1, V domains shown)
VH: B1 VH with G99F, G100M, I102F, S103G
VL: B1 VL with V88N, A89S, S91D, V92S, V93S
notes: Full-length human IgG1 / human lambda, transient, conditioned medium; Framework limits derived; also called VH3/VLP
B6: AbM (antibody, human IgG1, V domains shown)
VH: B1 VH with G99F, G100F, I102F, S103G
VL: B1 VL with A89T, S91N, V92R, V93Y
notes: Full-length human IgG1 / human lambda, transient, conditioned medium; Framework limits derived; also called VH6/VL13
B7: AbC (antibody, human IgG1, V domains shown)
VH: B1 VH
VL: B1 VL with V88S, A89S, V92R, V93H
notes: Full-length human IgG1 / human lambda, transient, conditioned medium; Framework limits derived; also called VHP/VL11
B8: AbE (antibody, human IgG1, V domains shown)
VH: B1 VH
VL: B1 VL with V88M, V92R, V93K
notes: Full-length human IgG1 / human lambda, transient, conditioned medium; Framework limits derived; also called VHP/VL14
B9: AbB (antibody, human IgG1, V domains shown)
VH: B1 VH
VL: B1 VL with A89S, S91A
notes: Full-length human IgG1 / human lambda, transient, conditioned medium; Framework limits derived; also called VHP/VL3

Molecular target: murine IL-21R expressed on cells (murine, UniProt Q9JHX3 20-529)
Experiment: cell-based or functional assay

Chain of murine IL-21R expressed on cells (Q9JHX3 20-529 limits assumed): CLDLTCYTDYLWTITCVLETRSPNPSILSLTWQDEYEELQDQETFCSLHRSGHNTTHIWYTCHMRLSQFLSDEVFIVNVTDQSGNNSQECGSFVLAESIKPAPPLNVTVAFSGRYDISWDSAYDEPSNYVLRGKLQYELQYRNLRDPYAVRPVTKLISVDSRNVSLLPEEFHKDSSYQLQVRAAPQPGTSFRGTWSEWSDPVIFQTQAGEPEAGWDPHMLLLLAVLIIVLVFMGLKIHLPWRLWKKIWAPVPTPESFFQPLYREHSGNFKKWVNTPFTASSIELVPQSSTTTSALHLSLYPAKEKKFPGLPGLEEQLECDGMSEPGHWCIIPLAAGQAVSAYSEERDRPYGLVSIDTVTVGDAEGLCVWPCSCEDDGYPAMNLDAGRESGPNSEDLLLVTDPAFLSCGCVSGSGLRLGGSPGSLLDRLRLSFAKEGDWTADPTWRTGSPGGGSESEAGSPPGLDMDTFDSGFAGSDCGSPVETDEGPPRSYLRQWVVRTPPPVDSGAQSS

Murine IL-21R-BaF3 Proliferation IC50	Binder
0.08 nM	B1
0.327 nM	B2
0.304 nM	B3
0.224 nM	B4
0.4 nM	B5
0.125 nM	B6
0.03 nM	B7
0.04 nM	B8
0.421 nM	B9

Molecular target: T2, human IL-21R expressed on cells (human, UniProt Q9HBE5 20-538)
Experiment: cell-based or functional assay

T2 sequence (Q9HBE5 20-538 limits assumed): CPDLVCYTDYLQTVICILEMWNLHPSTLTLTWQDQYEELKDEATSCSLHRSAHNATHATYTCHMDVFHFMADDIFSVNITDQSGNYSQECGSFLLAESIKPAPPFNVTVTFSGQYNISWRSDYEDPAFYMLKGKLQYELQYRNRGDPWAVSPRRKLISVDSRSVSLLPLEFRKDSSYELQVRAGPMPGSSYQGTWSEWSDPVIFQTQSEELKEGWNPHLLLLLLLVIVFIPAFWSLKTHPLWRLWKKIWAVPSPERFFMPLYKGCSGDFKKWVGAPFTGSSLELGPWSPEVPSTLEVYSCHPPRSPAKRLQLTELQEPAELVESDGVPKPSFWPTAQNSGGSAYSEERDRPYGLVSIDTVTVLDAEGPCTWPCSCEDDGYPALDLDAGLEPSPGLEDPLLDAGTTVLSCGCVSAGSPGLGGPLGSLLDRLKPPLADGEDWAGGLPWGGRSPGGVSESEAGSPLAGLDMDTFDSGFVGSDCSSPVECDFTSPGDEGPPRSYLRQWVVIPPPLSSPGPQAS

Human IL-21R-BaF3 Proliferation IC50	Human IL-21R-TF1 Proliferation IC50	Binder
0.97 nM	3.8 nM	B1
0.94 nM	3.64 nM	B2
0.54 nM	2.41 nM	B3
1 nM	3.8 nM	B4
0.65 nM	4.6 nM	B5
1.08 nM	4.22 nM	B6
0.82 nM	3.36 nM	B7
0.56 nM	2.28 nM	B8
1.14 nM	3.34 nM	B9

Molecular target: T3, rat IL-21R expressed on cells (rat)
T3 construct: whole, on cells; Transiently transfected CHO-PA-Dukx cells
Experiment: cell ELISA on transfected CHO cells, 13 nM IgG
Experimental: (§1) A subset of binding proteins was tested for binding to rat, cynomolgus monkey, human IL-21R, or human IL-2R-γ common subunit expressed transiently on the surfaces of CHO-PA-Dukx cells. Cells were transfected 48 hr prior to the assay. On the day of the assay, cells were washed gently 5× in PBS containing 0.9 mM CaCl₂ and 0.45 mM MgCl₂ (PBS/CaMg) on an automated plate washer (Titertek, Huntsville, Ala.), and blocked for 1 hr at RT in PBS/CaMg/5% nonfat dry milk. Conditioned media from transiently expressed anti-IL-21R IgGs were serially diluted in blocking buffer and added to the cells in the blocked plates for 1 hr at RT. Cells were washed 5× with PBS/CaMg and then incubated with horseradish peroxidase-conjugated anti-human IgG for 1 hr at RT. Cells were then washed 10× in PBS/CaMg and all of the wash buffer was removed. Cells were incubated with 100 μl TMB until the color reaction reached saturation, stopped with 100 μl of 0.18 M H₂SO₄, and read at A450 on a Perkin Elmer ENVISION™ plate reader.

A450 at 13 nM Ab in cell ELISA	Binder
1.12 A450	B1
1.1 A450	B2
1 A450	B3
1.09 A450	B4
1.26 A450	B5
0.78 A450	B6
0.999 A450	B7
1.11 A450	B8
1.09 A450	B9

Molecular target: T2, human IL-21R expressed on cells
Experiment: cell ELISA on transfected CHO cells, 13 nM IgG
Experimental: as §1

A450 at 13 nM Ab in cell ELISA	Binder
1.2 A450	B1
1.35 A450	B2
1.35 A450	B3
1.24 A450	B4
1.22 A450	B5
1.2 A450	B6
1.22 A450	B7
1.26 A450	B8
1.15 A450	B9

Molecular target: T1, human gamma common chain expressed on …
Experiment: cell ELISA on transfected CHO cells, 13 nM IgG
Experimental: as §1

A450 at 13 nM Ab in cell ELISA	Binder
0.111 A450	B1
0.107 A450	B4
0.126 A450	B5
0.137 A450	B7
0.107 A450	B9

Molecular target: T4, cynomolgus monkey IL-21R expressed on CHO cells (cynomolgus monkey)
T4 construct: whole, on cells
Experiment: cell ELISA on transfected CHO cells, 13 nM IgG
Experimental: as §1

A450 at 13 nM Ab in cell ELISA	Binder
1.35 A450	B1
1.32 A450	B2
1.46 A450	B3
1.21 A450	B4
1.27 A450	B5
1.45 A450	B6
1.28 A450	B7
1.42 A450	B8
1.33 A450	B9
